Assay results reported in paper PMC4860004.

Biological target: IRΔβ (human insulin receptor ectodomain construct, (αβ)2 homodimer) (human) (UniProt P06213)
Assay: crystal structure

stoichiometry N: 2
Substance: IRΔβ (human insulin receptor ectodomain construct, (αβ)2 homodimer) (from UniProt P06213-2 28-1370)
